# Data: patent publication US11833164B2, “Methods of treating Fabry disease in patients having a mutation in the GLA gene” (Amicus Therapeutics, Inc., priority 2019, dated 2023)
# Numbering of substitutions follows the chain as printed. In names and notes the source's numbering stands.
# B1: L177F (protein)
# chain: MQLRNPELHLGCALALRFLALVSWDIPGARALDNGLARTPTMGWLHWERFMCNLDCQEEPDSCISEKLFMEMAELMVSEGWKDAGYEYLCIDDCWMAPQRDSEGRLQADPQRFPHGIRQLANYVHSKGLKLGIYADVGNKTCAGFPGSFGYYDIDAQTFADWGVDLLKFDGCYCDSFENLADGYKHMSLALNRTGRSIVYSCEWPLYMWPFQKPNYTEIRQYCNHWRNFADIDDSWKSIKSILDWTSFNQERIVDVAGPGGWNDPDMLVIGNFGLSWNQQVTQMALWAIMAAPLFMSNDLRHISPQAKALLQDKDVIAINQDPLGKQGYQLRQGDNFEVWERPLSGLAWAVAMINRQEIGGPRSYTIAVASLGKGVACNPACFITQLLPVKRKLGFYEWTSRLRSHINPTGTVLLQLENTMQMSLKDLL
# B2: A181T (protein)
# chain: B1 chain with F177L, A181T
# B3: D182V (protein)
# chain: B1 chain with F177L, D182V
# B4: L177S (protein)
# chain: B1 chain with F177S
# B5: A181P (protein)
# chain: B1 chain with F177L, A181P
# B6: L180M (protein)
# chain: B1 chain with F177L, L180M
# B7: E178G (protein)
# chain: B1 chain with F177L, E178G
# B8: E178Q (protein)
# chain: B1 chain with F177L, E178Q
# B9: L177V (protein)
# chain: B1 chain with F177V
# B10: D182E (protein)
# chain: B1 chain with F177L, D182E
# B11: A181V (protein)
# chain: B1 chain with F177L, A181V
# B12: Y184F (protein)
# chain: B1 chain with F177L, Y184F
# B13: D182A (protein)
# chain: B1 chain with F177L, D182A
# B14: E178A (protein)
# chain: B1 chain with F177L, E178A
# B15: L177W (protein)
# chain: B1 chain with F177W
# B16: Y184S (protein)
# chain: B1 chain with F177L, Y184S
# B17: D182Y (protein)
# chain: B1 chain with F177L, D182Y
# B18: E178K (protein)
# chain: B1 chain with F177L, E178K
# B19: L180S (protein)
# chain: B1 chain with F177L, L180S
# B20: Y184H (protein)
# chain: B1 chain with F177L, Y184H
# B21: L177M (protein)
# chain: B1 chain with F177M
# System: mutant form of α-Gal A expressed in HEK-293 cells
# Assay: HEK assay (GLP HEK / Migalastat Amenability Assay): α-Gal A activity in lysates of transiently transfected HEK-293 cells incubated with or without 10 μM migalastat
# Type: cell-based, human
# Conditions: 10 μM migalastat versus baseline
# In short: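 Activity reported as 4-MU released (nmol/mg/hr), mean±SEM, from lysates of transiently transfected HEK-293 cells expressing mutant α-Gal A, cultured with or without 10 μM migalastat.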
row,Molecule,Absolute increase (% WT)
1,B1,38.7 % WT
2,B2,19.2 % WT
3,B3,44.7 % WT
4,B4,35.9 % WT
5,B5,29.8 % WT
6,B6,29.5 % WT
7,B7,18.6 % WT
8,B8,18.3 % WT
9,B9,22.9 % WT
10,B10,32.3 % WT
11,B11,14.2 % WT
12,B12,31.8 % WT
13,B13,31.8 % WT
14,B14,14.5 % WT
15,B15,37.6 % WT
16,B16,25.2 % WT
17,B17,31.9 % WT
18,B18,16.4 % WT
19,B19,35.5 % WT
20,B20,18.4 % WT
21,B21,27.9 % WT

# Same assay, conditions: 10 μM migalastat α-Gal A activity relative to baseline
row,Molecule,Relative increase
1,B1,1.9
2,B2,1.4
3,B3,1.6
4,B4,1.7
5,B5,1.9
6,B6,1.3
7,B7,1.5
8,B8,1.3
9,B9,1.3
10,B10,1.4
11,B11,1.2
12,B12,1.4
13,B13,1.3
14,B14,1.2
15,B15,1.7
16,B16,2.7
17,B17,1.4
18,B18,1.2
19,B19,3.3
20,B20,1.6
21,B21,1.4

# Same assay, conditions: 10 μM migalastat, 5 days; percentage of baseline wild-type α-Gal A activity; mean ± SEM
row,Molecule,10 μM migalastat α-Gal A activity (% WT)
1,B1,84 ± 2.3 % WT
2,B2,71.3 ± 4.6 % WT
3,B3,124.8 ± 6.9 % WT
4,B4,87.2 ± 4.5 % WT
5,B5,61.5 ± 3.3 % WT
6,B6,122.9 ± 5.5 % WT
7,B7,61.7 ± 6.4 % WT
8,B8,86.4 ± 5 % WT
9,B9,91.8 ± 2.8 % WT
10,B10,117.1 ± 4.5 % WT
11,B11,93.2 ± 5.3 % WT
12,B12,109.7 ± 5.8 % WT
13,B13,133.3 ± 8.2 % WT
14,B14,84.8 ± 6.8 % WT
15,B15,88.2 ± 2 % WT
16,B16,40.6 ± 1.6 % WT
17,B17,116.5 ± 6.4 % WT
18,B18,90.9 ± 4.8 % WT
19,B19,50.9 ± 2.3 % WT
20,B20,48.6 ± 3.5 % WT
21,B21,97.4 ± 2.7 % WT

# Same assay, conditions: absence of migalastat; percentage of baseline wild-type α-Gal A activity; mean ± SEM
row,Molecule,Baseline α-Gal A activity (% WT)
1,B1,45.3 ± 2.1 % WT
2,B2,52.1 ± 2.7 % WT
3,B3,80.2 ± 4.2 % WT
4,B4,51.4 ± 1.7 % WT
5,B5,31.7 ± 2 % WT
6,B6,93.4 ± 6.6 % WT
7,B7,43.1 ± 4.7 % WT
8,B8,68.1 ± 4.5 % WT
9,B9,68.9 ± 3.2 % WT
10,B10,84.8 ± 4 % WT
11,B11,79.1 ± 3.5 % WT
12,B12,77.9 ± 4.4 % WT
13,B13,101.5 ± 5.7 % WT
14,B14,70.3 ± 4.9 % WT
15,B15,50.5 ± 2.6 % WT
16,B16,15.4 ± 1 % WT
17,B17,84.7 ± 4.1 % WT
18,B18,74.5 ± 3.4 % WT
19,B19,15.4 ± 1.5 % WT
20,B20,30.2 ± 2.9 % WT
21,B21,69.5 ± 2.3 % WT

# Same assay, conditions: lysates of HEK-293 cells transfected with the mutant form, incubated 5 days in the absence of migalastat; mean ± SEM
row,Molecule,Baseline α-Gal A activity
1,B1,15605 ± 911 nmol/mg/h
2,B2,17946 ± 1002 nmol/mg/h
3,B3,26881 ± 2166 nmol/mg/h
4,B4,17445 ± 533 nmol/mg/h
5,B5,10948 ± 725 nmol/mg/h
6,B6,35987 ± 2266 nmol/mg/h
7,B7,17470 ± 2323 nmol/mg/h
8,B8,23272 ± 1501 nmol/mg/h
9,B9,23616 ± 1282 nmol/mg/h
10,B10,28082 ± 2023 nmol/mg/h
11,B11,26667 ± 1945 nmol/mg/h
12,B12,26088 ± 1334 nmol/mg/h
13,B13,33673 ± 2886 nmol/mg/h
14,B14,23910 ± 1511 nmol/mg/h
15,B15,17321 ± 1025 nmol/mg/h
16,B16,5213 ± 371 nmol/mg/h
17,B17,28377 ± 2226 nmol/mg/h
18,B18,25584 ± 1225 nmol/mg/h
19,B19,5625 ± 604 nmol/mg/h
20,B20,10980 ± 867 nmol/mg/h
21,B21,23730 ± 946 nmol/mg/h

# Same assay, conditions: lysates of HEK-293 cells transfected with the mutant form, incubated 5 days with 10 μM migalastat; mean ± SEM
row,Molecule,10 μM migalastat α-Gal A activity
1,B1,28893 ± 1210 nmol/mg/h
2,B2,24490 ± 1576 nmol/mg/h
3,B3,42107 ± 3524 nmol/mg/h
4,B4,29868 ± 1909 nmol/mg/h
5,B5,21274 ± 1279 nmol/mg/h
6,B6,47587 ± 2132 nmol/mg/h
7,B7,26566 ± 4263 nmol/mg/h
8,B8,29671 ± 1733 nmol/mg/h
9,B9,31347 ± 1132 nmol/mg/h
10,B10,38956 ± 2806 nmol/mg/h
11,B11,32358 ± 2863 nmol/mg/h
12,B12,36815 ± 2009 nmol/mg/h
13,B13,44436 ± 3828 nmol/mg/h
14,B14,29125 ± 2326 nmol/mg/h
15,B15,30075 ± 867 nmol/mg/h
16,B16,13965 ± 799 nmol/mg/h
17,B17,39247 ± 3250 nmol/mg/h
18,B18,31222 ± 1660 nmol/mg/h
19,B19,18335 ± 964 nmol/mg/h
20,B20,17894 ± 1145 nmol/mg/h
21,B21,33080 ± 829 nmol/mg/h
